In the DeepSol protein solubility set:

Assay: soluble on expression in E. coli; label from the status in PepcDB or PDB records

**Q.** For “MKGNALCTGEPVMTIETRGGGSEDIAVLPLDPTGNITRLFIRERCNDSSDPECKTGQWRLGSVDISRENTPASTRYAWRPGNNASEDDFEPLGMSLVPGNTPGEGTLFVIDIARPQSVRIWQLDISGGEITKATLATPADTQTGARLTAANSLQAVRNDDSRSFHLTITRFDEYGLLPFRPTPWPALVRINNGVIQPPPAQDFRNANGIIRPCAGCDLVIASYWERRLRFVSKENGEIGEYASAELPIRPDNLRLDGERILIAGQRRVDLTALNLLVSPHIPSPSGVYAIDTRSLGPDTVPTLLWEGGWKHGHSVATAVALPGNRLAIGQINTPGILIADCSPLEHHHHHH”, which “soluble on expression in E. coli” value is on record?
**A.** not soluble

**Q.** For “MEHYMNTLAETMQRYVEKHDLHNLEGIKQTAIEGVWFYRSSKGNNRQPFVYQSGIIVLGQGHKNIHIGQTPVQYGPDDYLVVGVPMPLECEAFATNNEPLLGISIDISPTLLHKLVKKLEAQKFSNICEDSKRCGLKSVRMNDAMLDACKRLMKALCNDLDVAILGESLLEEIVYRTLVSKEGYVLFELAHQEGSYARVAKALNRVHAEYHEQLNVQTLAEEANMSVSAFHQAFRSVTLESPLQYIKKVRLNKARDLIQLEGKRVNDAARLVGYSSPSQFSREYKRHFNETPRSTKA”, which “soluble on expression in E. coli” value is on record?
**A.** not soluble

**Q.** With “MGSDKIHHHHHHASCSGGDKSKAPVVSTADIENAAEVIKYYNTSLGVLKDMVKEKDVNAVLDYMEQKGKTPALSAIVPPAVVSKDSAIVLNPGNCFNEETRRNLKQNYTGLFQARTEFYANFDTYLSYLKKKDVTNAKKLLDVNYQLSTQMSEYKQNIFDILSPFTEQAELVLLVDNPLKAQIMSVRKMSSTMQSILNLYARKHRMDGPRIDLKVAELTKQLDAAKKLPVVNGHEGEMKSYQAFLSQVETFIKQVKKVREKGEYSDADYDMLTSAFETSII” as the sequence, how does the “soluble on expression in E. coli” value read?
**A.** not soluble

**Q.** Which “soluble on expression in E. coli” value does the source give for “MRIIMPVEFSRIVRDVERLIAVEKYSLQGVVDGDKLLVVGFSEGSVNAYLYDGGETVKLNREPINSVLDPHYGVGRVILVRDVSKGAEQHALFKVNTSRPGEEQRLEAVKPMRILSGVDTGEAVVFTGATEDRVALYALDGGGLRELARLPGFGFVSDIRGDLIAGLGFFGGGRVSLFTSNLSSGGLRVFDSGEGSFSSASISPGMKVTAGLETAREARLVTVDPRDGSVEDLELPSKDFSSYRPTAITWLGYLPDGRLAVVARREGRSAVFIDGERVEAPQGNHGRVVLWRGKLVTSHTSLSTPPRIVSLPSGEPLLEGGLPEDLRRSIAGSRLVWVESFDGSRVPTYVLESGRAPTPGPTVVLVAGGPFAEDSDSWDTFAASLAAAGFHVVMPNYRGSTGYGEEWRLKIIGDPCGGELEDVSAAARWARESGLASELYIMGYSYGGYMTLCALTMKPGLFKAGVAGASVVDWEEMYELSDAAFRNFIEQLTGGSREIMRSRSPINHVDRIKEPLALIHPQNDSRTPLKPLLRLMGELLARGKTFEAHIIPDAGHAINTMEDAVKILLPAVFFLATQRERR” here?
**A.** soluble

**Q.** With “MSLDGKPLADKMRPTTLNNYMGQNKVLGENTMLRNLLQANDIPSIILWGPPGCGKTTLAHIIAKNAQKSSSRFVTLSATSASTSDVREFIKQAQNEQRLFKRKTILFVDEIHRFNKMQQDTFLPHVECGTITLIGATTENPSFQVNTALLSRCRVIVLEKLSVEAMETILMRAVDSLGLKVLKDGEQLVGSSSDVSETSVYVEEKALTTLAHLCDGDARTGLNGLQLSVQASLAAEKDPIKQGIVIKEEHIKEGLQRSHILYDRAGEEHYNCISALHKSMRGSDKNASLYWLGRMLEGGEDPLYVARRLVRFASEDIGLADPQALTQAVSTYQACHFIGMPECDVILAQCVMYMACAPKSVTVYSAYNKVKNCLKNHKGPLPPVPLHLRNAPTKLMKGLGYGKGYKYNPNFSEPVEQDYMPEEMKGVTEGHHHHHH” as the sequence, how does the “soluble on expression in E. coli” value read?
**A.** not soluble

**Q.** Which “soluble on expression in E. coli” value does the source give for “MSLTEKFRPTLKDVARQAGVSIATASRALADNPAVAASTRERIQQLASDLGYRANAQARALRSSRSNTIGVIVPSLINHYFAAMVTEIQSTASKAGLATIITNSNEDATTMSGSLEFLTSHGVDGIICVPNEECANQLEDLQKQGMPVVLVDRELPGDSTIPTATSNPQPGIAAAVELLAHNNALPIGYLSGPMDTSTGRERLEDFKAACANSKIGEQLVFLGGYEQSVGFEGATKLLDQGAKTLFAGDSMMTIGVIEACHKAGLVIGKDVSVIGFDTHPLFALQPHPLTVIDQNVEQLAQRAVSILTELIAGTVPSVTKTTIPTALIHRESIINSTLRKEGHHHHHH” here?
**A.** soluble

**Q.** Which “soluble on expression in E. coli” value does the source give for “MAHHHHHHMFKFVSSIGDAAYKAASKTGLAAGSEQPPYPCALPLQVIEDCEDTETTERVLNDTYAAVRDLLSDDLPLLHSTISDVQAHKPFKLVDFTDREGDIRLFTRPHVGSYNFARVTLTLDNVSPAKVLTFMHAQSLEARNRYSSNLCQYDVIARNPELPAQYIGNDNDHLEELCRMGIRDWHVEYNRYSAPPPVTARDFVYLVEKRYAPEQRCYYIYGTSVDYRDTAGIAIEKDNCVRGAVVFGWRFQHVGRKTYCTYVSCMSPNGWAPTFIVGWMKTAIAKELQNARRVLYQDVPSCHAAGASSEYAKGALAAYDAPITSCRQNKPTRDHSSSKSSAQKLGNAMEHEERRLLEDEKPIVFE” here?
**A.** soluble

**Q.** Which “soluble on expression in E. coli” value does the source give for “GMLPDDVNQADVLADVTAAFYRYEKALTGNDVAVLDELFWHDEKTVRYGAGENLYGIEEIRAFRLARPSAGLDRALRNTVITTYGHDMAVASTEFTRTGSTKIGRQMQTWVKMPEGWRIVAAHVSLMSE” here?
**A.** soluble

**Q.** Which “soluble on expression in E. coli” value does the source give for “MESGSWRPPFSTGKIVGNYGLLKLYLEVAREKGRRDLVDKALISEDDVDMLRRLSASPGATAEDFVNALEERFVERVDPEVASEALARAGINVDGDTARRMIARILAGWLVEMGEEMKLYRLRRSWED” here?
**A.** soluble

**Q.** Which “soluble on expression in E. coli” value does the source give for “MSLTANRDKFRPVYHHTPLYGWMNDANGLVYKDGEYHLYFQYNPYGSVWGNMHWGHSVSKDLVHWEHLDPAIARDTLGHIFSGSAIVDKHNSAGYGENTIVAFYTSHRNIPSGQSQVQSMAYSTDNGRTYTKYEQNPVLTPFDGLQNFRDPKVFWYEPEQKWIMIVSADKNMRFYSSANLKQWEYMSEFGEGFGPQPNQFECPDFIQLPVDGDRTRMKWVMIVNINPGFVYGGSGTMYFTGDFDGHQFVCDTKPEVVKWLDWGKDHYATVCFSNTGDRVIAVPWMSNWQYANYTPIQQFRSANALPRELSLYTGEDKQLYLSAAPVKETEHLRKDSKKLDDFTVNGEKRLETLFENNDGAFELELQLVSAGKEAGFELLNSLGEKVKIYLDASEGRVVMDRAESGIVDFGKKVKPHDLDTEESYARYKEVTVNYKNDFALGTWAPINTAKAHKIQVFVDNGSVELFVDGGRVAMTNLVFPNEPYNSLRFYSKGGEMKISNFTIYKLGLEGHHHHHH” here?
**A.** soluble

**Q.** For “MSLELTTQDIQLQQHFANKQAAIQGLAHALTAKGLVAEGYAQGMLNREAQHSTYLGNGIAIPHGTTDTRELVKQTGVTAMHFPQGLDWGDGNLVYVAIGIAAKSDEHLGILKQLTRVLSADGVEQALQQAKTAQQIIAIIKGEAQLTADFDASLIQLQFPASDMVQMSAVAGGLLKNTGCAENEFVADLVTKAPTHLGRGLWLVASDRAVKRTGMSIVTTANHCEYEQQAVKALIAFSVCNDVHQPLLNTITQCVFEQKQDQLLQADVQQLLNLFSGNAEQTIAQRTIAVGTITEETIAAETVAEPDSARAHTATFRIKNSHGLHARPGAMLVAEAKKFESNIRVSNLDGDGQVVNAKSLMKVIALGVKHNHQLQFTAEGPDAEAALQALGVAINAGLGEGHHHHHH”, which “soluble on expression in E. coli” value is on record?
**A.** soluble

**Q.** Which “soluble on expression in E. coli” value does the source give for “MGSDKIHHHHHHMSEEPRYLAVDVGGTNLKYALINRSGQMIKKSRMETPHEGLTQFLEAIEKISDKLKGQLNGVAFSTPGRVDTTTDTIYCRNSTLPYLNEVCLPRKLQKLGLPISVENDGKSAALAESWLGNLNDVKNGMAIVLGTCVGGGIMLDGHLWAGSRRLAGEVSLMPADQTNLADDGLFGKTGSAVRMIEAVNTVIGASCLTDGHCAFAAINAGQAQATQIFRQYAREVAALILNVQTVLDLDRYVIGGGISFQPILIDEINRQYDWILERRPWVKSTIARPEILSSRFHNDANLYGALYRLFNKLDAKHDVPIDLDNLLVNAGR” here?
**A.** not soluble

**Q.** For “GPGSMVDPSVLLAYCPTHDFQRIEAVVREWPGVEAVGSLRTKEGKENTTSVFIKFSDKEAARDATSRIDAVPGLVRKIEEPKAKQRMRKMGKNMLIDPAMEIFSFGATDKGDVTFNERKREGNRRRHPSVIGPGSGSERTSNKGNNAIRHHPFTPPARASVALVDNVPFNMTNDQVARLFSPFGELIDLSRYETMAMVFYRSPDSVLKCIQQLNGKTVKGKIITVSSGAITIPGLLAAVVGVQVHN”, which “soluble on expression in E. coli” value is on record?
**A.** soluble

**Q.** With “MGSDKIHHHHHHMLIHQQYTRHGPDYRFGEQMTFLDVKQTFGFSHVRVGRWVTREESLIAANLVFDSLADLAFILHLPPLTLGLRQSLSLAFGHGGQKGVQAHYAPAARELALAKNAGAGALAHEFWHAFDHYVAPKAFQRVTGRFTCASDLWLADLPLIDHPLNQRLVEIFRVTLLSEDNLAPSDYVRRAIALDKRYGSQYFAKPTEMMARAFEACIESYQGIQNPYLVSGTRYSSLAKEGAYPDEPHRQRIFKALIAYFEPLGIALGKAG” as the sequence, how does the “soluble on expression in E. coli” value read?
**A.** not soluble

**Q.** Which “soluble on expression in E. coli” value does the source give for “MGSDKIHHHHHHMSTLDQSGTFHLAGRNIRRLGYGAMQLAGKGVFGPPKDREEAIAVVREAVDSGVNHIDTSDFYGPHITNQIIREALHPYADDLLIVTKVGATRGEDASWNAAFSKEELTQAVHDNLRNLGKEVLDVVNLRAMFDVHGPAEGSLAAPLEVLADLQRQGLIRHIGVSNVTPRQITEAGEIVEIVCVQNQYNLAHRQDDALIDTLAAQGIAYVPFFPLGGFSPLQSTVLSDVATQLDASPLQVALAWLLKRSSNILVIPGTSSRAHLRQNLAAASLDLPDSAMTALAAIGG” here?
**A.** not soluble

**Q.** For “MGSDKIHHHHHHMQWTEEQLPAIHSFAKKLLVQAFAGTGKTTTLVGYATHNSSVKMLYLCYNKAVEIAAKNRFPRNVTCKTAHGLAYAVYGSQYKHKQAGNLRLTDIARTINTQDWELAKDIVSTLNAFMASKDLELLEDHFVRFQSNRTLTSVQQQYMSKALNLTRDVWDKMVDIQDRSVSMTHDGYLKLYQMSQPDLSQRFGAILLDEGQDVNPVIANLVQIQKITQVTVGDRHQQLYRFRGAVDALNSPAMKDAEKHFLTQSFRFGPAVAYVANVILSFKGEKIPLQGLGQPTLVKRALPEDLPHRTYLHRTVSGVIENALRLVNQDHRMQWIGGIDSYSLRDLEDLFYFSRHMNDQVQQRKLLTDYADYDQYVVIAKATQDPEMLRSIKMIENYPDLPKRIEQLRGASVTSELDATVTLSTAHRAKGLEWDFVGLYDDFSADPLSPDIDAGKRDDELNLLYVAVTRAMKILAVNSLVIDIMQRFKDMKQRSRP”, which “soluble on expression in E. coli” value is on record?
**A.** not soluble

**Q.** Which “soluble on expression in E. coli” value does the source give for “LGGAQETAETMAKESMVLLKNTDDTLPLSGDESVLLTGPGVDSNGNNTRALMQHGGWTLGWQGASAGGPFPRQNLLEAELRARVGSLTHVPTSYENTTWWAGEGDGGNQQSDENGNFDFTAEQRSRVESAGPESDVVVVVLGEGTHNEGFGDRDELVLDESQQALLDTVVESTDDSAPIIGVMLAGSPRGSPETFSQLDALLFAGQPGSDGGVAIAETLVGEYNPSGKLPFSWPENVGTTPVQYTRYDPTSTGGTDNTAIYEYGHGLSYTDF” here?
**A.** not soluble

**Q.** With “MSGVKIAFIRHHDLWIKVDGKEKQLTKGEYITGPKWSYDGEWLAYVKGEKQNTLELYRLKDGKKVTPFHSEVSNYQWSPTENIIAFIFTGTLHTFKVEKKNADFENVSAGVGDYAWYPNGKKFLVSSEAHLLPTGWTGAQLYEVQKDAHMNPHKMKHLYALPNEHDDFLALVASGFQWSPDQKWISFLAVPTASWSADSNTLCLVRADGSRFEKVDQMLLNTQWFKWAPANNILAYIEGSGRVALENKHLKVKELPALQQNTFTPKGYVDWDFTWKNDNVIIVSRAKEAGIETPPEKRPLPSLYEIDSTSDEQHRITKPPHRQGDYHPLFMNKSNQLIWIRSDRKKADVWLAHKDGKHEMKWIENIDVPLEHHHHHH” as the sequence, how does the “soluble on expression in E. coli” value read?
**A.** not soluble
